Reference: patent publication US12371675B2, “Process and microorganism for synthesis of adipic acid from carboxylic acids” (THE GOVERNING COUNCIL OF THE UNIVERSITY OF TORONTO, priority 2015, dated 2025)

Legend:
[1] = AR reductase activity, NAD(P)H oxidation at 340 nm; type: biochemical; details: 10 mM, ND = no activity was detected; for Activity [U/mg protein] Adipaldehyde: 1.8% DMSO
Method: Enzyme activity of purified ARs was measured spectrophotometrically in 96-well plates Reaction mixtures contained 100 mM HEPES buffer (pH 7.5), 0.4 mM NADH/NADPH, 10 mM adipaldehyde or butylaldehyde, and proteins (10 μg for adipaldehyde screen, 2 μg for butyraldehyde screen) in a final volume of 200 μL Reaction mixture for adipaldehyde screening contained 1.8% DMSO. Enzyme reactions were monitored by following the decrease in absorbance at 340 nm (ε340 nm=6,220/M·cm) due to oxidation of NAD(P)H to NAD(P)+.

[2] = AT activity coupled with alanine and glutamate dehydrogenases; type: biochemical; details: 10 mM adipaldehyde, alanine and glutamate amino-donors; ND = no activity was detected

Molecule	Activity [U/mg protein] Adipaldehyde [1]	Activity [U/mg protein] Butyraldehyde [1]	Adipaldehyde 10 mM U/mg [2]
PSPTO_2097: aldehyde reductase (AR) from Pseudomonas syringae (protein) MIEHLKLAGKVALVQGGSRGIGAAIVNRLAKEGAAVAFTYINSEVNALEIQDSINANGGRALAIRADSADEKAIRQAVQTTAETLGRLDILVNNAGVLAIAPLNEFSMQDFDKTLAINVRSVFIASQEAARHMEEGGRIINIGSTNAERMPFAGGATYAMSKSALIGLTKGMARDLGPQGITVNNVQPGPVDTDMNPAQGEFAESLKALMALPRYGKSEEIASFVAYLAGPEAGYITGASLTIDGGFSA	1.046 ± 0.009 U/mg protein	0.59 ± 0.597 U/mg protein	
SCO5676: aminotransferase (AT) from Streptomyces coelicolor (protein) MTALPQERRVVTAIPGPKSQELQARRTAVVAQGVGSTLPVFVARAGGGVIEDVDGNRLIDFGSGIAVTSVGASAEAVVRKASAQLADFTHTCFMVTPYEGYVAVAEALAELTPGDHAKKSALFNSGAEAVENAVKIARAYTKRQAVVVFDHGYHGRTNLTMALTAKNMPYKHGFGPFAPEVYRVPVAYGYRWPTGAENAGPEAAAQAIDQISKQVGAENVAAVIIEPVLGEGGFIEPAKGFLPAIREFASDNGIVFVADEIQSGFCRTGQWFACEDEGIVPDLITTAKGIAGGLPLSAVTGRAEIMDAAHSGGLGGTYGGNPVACAGALGAIETMKELDLNARAKDIEAVMKSRLAAMAEKFDVIGDVRGRGAMIAIELVKDRETKEPNPAATAALAKACHQEGLLVLTCGTYGNVLRFLPPLVIGEDLLNEGLDIIEQAFTRV			0.084 ± 0.015 U/mg
RPA0021: aldehyde reductase (AR) from Rhodopseudomonas palustris (protein) MTPRNATVAVIGAGDYIGAEIAKKFAAEGFTVFAGRRNGEKLAPLVAEIEAAGGRIVARSLDARNEDEVTAFLNAADAHAPLEVTIFNVGANVNFPILETTDRVFRKVWEMACWAGFVSGRESARLMLAHGQGKIFFTGATASLRGGSGFAAFASAKFGLRAVAQSMARELMPKNIHVAHLIIDSGVDTAWVRERREQMFGKDALANPDLLMPPAAVAGAYWQLYQQPKSAWTFEMEIRPYGEKW		0.116 ± 0.031 U/mg protein	
PA2918: aldehyde reductase (AR) from Pseudomonas aeruginosa (protein) MVDHSIKGKTVLITGGAKNLGGLIARDLAAHGAKAITIHYNSAASKADADATVAALQAAGAKAVALQGDLTSAAAMEKLFADAIAAVGKPDIAINTVGKVLKKPITEISETEYDEMSAVNSKSAFFFLREAGKHVNDNGKICTLVTSLLGAYTPYYAAYAGTKAPVEHFTRAASKEFGARGISVTAVGPGPMDTPFFYPAEGADAVDYLKNAAALSPFSKTGLTDIDDVVPFIRHLVSEGWWITGQTILINGGFSTK		0.137 ± 0.03 U/mg protein	
PP_3370: aldehyde reductase (AR) from Pseudomonas putida (protein) MQYVKLGSTGLDISRLCLGCMTFGEPDAGTHPWTLGEDASRPIIRHAVEQGINFFDTANSYSAGTSEIILGKLLREFTRREETVIATKVFFPANMWEGASRPNEQGLSRKAIMANIDASLSRLGTDYVDLYQIHRWDYHTPIEETMEALHDVVKAGKARYIGASSMYAWQFAKAQQVAANHGWSRFVSMQNYLNLIYREEEREMIPLCLDQGVGLMPWSPMARGRLTRPHGQQTQRTRTDVSGQSFYEKTEVEDGRVIDVVEQIASERGVPMAQVALAWVLGRAGVSAPIVGASKPAHLDDALGALSLQLSEDEVARLQAPYVPHAVTGFK	0.437 ± 0.043 U/mg protein	1.516 ± 1.382 U/mg protein	
RHA1_ro08443: aldehyde reductase (AR) from Rhodococcus jostii (protein) MPEIVKFEMPRVETVVQGVGAVREIGAELDRRDLKRVFLVTGHSVGSSEAFAALASDLGDRVVGIFDQVKAHNPVELIVELITAAKSAQAEAFVAVGGGSPVDAAKLAAIGLCEGSESVEDLARNYLVFEYPNTIHQKPLTGTPMPVFAVPTTLSAAEWDGFAGSVDHTRDTKDLTVYLEATPQVVFLDPEFCAHTPRDLWATTGVRALDHAVETAYAKNAHPFTTALANGALTMLAENLPRSVKDPHDYDAALKCLEAAWMSIIGVHNVSLGLSHAIGHQLGAVGIPHGVTSCIMLPHVMRFLEPVTSAEQARMAQSLAQVQGDGEDLPAADRLERILDELGVPRRVSEFGVGRDKMDGVARATLGDIVVRESPRPVDETVVYGLLETVW		0.188 ± 0.142 U/mg protein	
TM_0111: aldehyde reductase (AR) from Thermotoga maritima (protein) MFKISFYLPTEIIFRVGAVDELEERAKKLGKKALIVTGRSSTKKTGLLQRVVDLLKKAGVESFVFDKIVPNPISDHVDEAAEIVRKEKIDFIIGLGGGSPIDSAKAISITAPNEGKFWDYVPVGGGKIPEKSIPVVAIPTTHGTGTEADPFAVITNPQTKEKVGIGYRNTFPVLSLVDPEVMKTLPKDQTAYTSMDAFYHAIEAFLNVNANPYSDVLALDAMKRIVTYLPVAYENGEDMEARTNLAWASTEAGITETLTGVIANHALEHGLSGFYPEITHGLGLCITGPYLFEYIFDHAYERLAIVGREVFGVYETDDRKAGRLAIKKLRDFQEMFGLNKRLSELGVKKEDIPKMAETGYRILNGVVVVTPGNLTAKDMEEIFNRCY		1.055 ± 0.43 U/mg protein	
Atu2528: aldehyde reductase (AR) from Agrobacterium fabrum (protein) MQPFVYMAAPARIVFSAGSSADVAEEIRRLGLSRALVLSTPQQKGDAEALASRLGRLAAGVFSEAAMHTPVEVTKTAVEAYRAAGADCVVSLGGGSTTGLGKAIALRTDAAQIVIPTTYAGSEVTPILGQTENGVKTTMRGPEILPEVVIYDAELTLGLPVAISMTSGLNAMAHAAEALYARDRNPIASMMAVEGLRAMIEALPVVRQAPHDIGARETALYGAWLCGTVLGAVGMSLHHKLCHTLGGSLDLPHAETHAVLLPHTIAYVEEAAPNLLAPLAALVGGRAGAGLFDFAARLGAPSSLAALGVGADDLDPMAELATANPYWCPRPIEKTAIRDLLQRAFEGARPA		0.110 ± 0.089 U/mg protein	
SAV2583: aminotransferase (AT) from Streptomyces avermitilis (protein) MSALPQERRVVTAIPGPKSQELQARRTAVVAAGVGSVLPVFTTRAGGGIIEDVDGNRLIDFGSGIAVTSVGASAEAVVRRASAQLQDFTHTCFMVTPYEGYVAVAEALAELTPGDHAKKSALFNSGAEAVENAVKIARAYTKRQAVVVFDHGYHGRTNLTMALTAKNMPYKNGFGPFAPEVYRVPVAYGYRWLTGPENAGAEASAQAIDMINKQIGADNVAAIIIEPVLGEGGFIEPAKGFLPAISKFAKDNGIVFVADEIQSGFCRTGQWFACEDEGIVPDLITTAKGIAGGLPLAAVTGRAEIMDAAHAGGLGGTYGGNPVACAGALGAIETMKELDLNAKAKNIEAVMKARLGAMAEKFDIIGDVRGRGGMIAIELVKDRDTKEPNPEAAGALAKACHQEGLLVLTCGTYGNVLRFLPPLVIGEDLLNEGLDIIEQAFSRI			0.136 ± 0.011 U/mg
SFyv_1886: aldehyde reductase (AR) from Shigella flexneri (protein) MHYQPKQDLLNDRIILVTGASDGIGREAAMTYARYGATVILLGRNEEKLRQVASHINEETGRQPQWFILDLLTCTSENCQQLAQRIVVNYPRLDGVLHNAGLLGDVCPMSEQNPQVWQDVMQINVNATFMLTQALLPLLLKSDAGSLVFTSSSVGRQGRANWGAYAASKFATEGMMQVLADEYQQRLRVNCINPGGTRTAMRASAFPTEDPQKLKTPADIMPLYLWLMGDDSRRKTGMTFDAQPGRKPGISQ		0.124 ± 0.042 U/mg protein	
PP4421: aminotransferase (AT) from Pseudomonas putida (protein) MDKQKQDLISQQDRGAVLHPFTQLKDFASGKAGDPTIIETAKGITITDATGREYIDGFAGLYCMNVGYGRTEVAEAISKQAHKLAYYHTYAAHTTEELARLSDRLVKMAPGKMSKVFYGMSGSDANETQAKLVWYYNNLRGKPNKKKIIARERGYHGCSVVSGSMTGMSFYHDHMDLPIAGILRTGAPHYYWGAEPGETELEFSARRARELEELILREGPDTIGAFIAEPVLGTGGITPPPEGYWAAVQPVLKKYDILLIADEVITGFGRTGAMFGCDKYGIEPDLITVAKGLTSAYAPLSASIVGEKVYKVMEEGADRVGAFSHGYTYSGHPIGVAAANAVLDIVEGENIPAHVDKVGQYFQKSMQETFSSLPIVGEVRGVGMMAAIEFVADPATKKRFDPALKVGARISKAARDRNLIARAMPHGEILGFAPPLVTTEQEVDRIISIAHEAVLSVLDELKV			0.061 ± 0.001 U/mg
SCO0229: aldehyde reductase (AR) from Streptomyces coelicolor (protein) MQRQNWLITGVSTGLGRAFAQAALSAGHTVVGTVRSENDVRAFEELGPGHAHGRILDVTDGGAVNGVVAEVERSVGPLDVVVANAGYGLEGTFEETPLAEVRRQFDVNVFGAMATLQAALPHMRARRRGHLMAVTSMGGLMAVPGMSAYCGSKFALEGILEALGKEVAQFGIHVTAIEPGSFRTDWAGRSMTRAARTVADYDDLFAPIREARQKASGNQLGNPAKAGEAVVHITSVDQPPAHLVLGSDALRLVTAARTAVDEDIRAWEALSRTTDFPQGAQL	0.362 ± 0.05 U/mg protein	0.892 ± 0.847 U/mg protein	
